Data taken from patent US20210324360.

Biological target: SUMO-modified granzyme B
Sequence (chain, as listed by the source): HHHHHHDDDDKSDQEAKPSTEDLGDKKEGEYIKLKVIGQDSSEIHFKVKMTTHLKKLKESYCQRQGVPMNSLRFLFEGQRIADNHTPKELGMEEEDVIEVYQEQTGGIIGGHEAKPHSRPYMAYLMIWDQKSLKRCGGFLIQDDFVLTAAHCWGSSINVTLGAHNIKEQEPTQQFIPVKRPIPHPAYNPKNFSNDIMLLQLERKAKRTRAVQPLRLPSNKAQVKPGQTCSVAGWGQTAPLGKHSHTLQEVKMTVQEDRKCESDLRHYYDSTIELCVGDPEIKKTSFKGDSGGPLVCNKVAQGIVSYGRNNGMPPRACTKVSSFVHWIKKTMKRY

B1: Sentrin-specific protease 1 (SENP1) (protein)
chain: MDDIADRMRMDAGEVTLVNHNSVFKTHLLPQTGFPEDQLSLSDQQILSSRQGHLDRSFTCSTRSAAYNPSYYSDNPSSDSFLGSGDLRTFGQSANGQWRNSTPSSSSSLQKSRNSRSLYLETRKTSSGLSNSFAGKSNHHCHVSAYEKSFPIKPVPSPSWSGSCRRSLLSPKKTQRRHVSTAEETVQEEEREIYRQLLQMVTGKQFTIAKPTTHFPLHLSRCLSSSKNTLKDSLFKNGNSCASQIIGSDTSSSGSASILTNQEQLSHSVYSLSSYTPDVAFGSKDSGTLHHPHHHHSVPHQPDNLAASNTQSEGSDSVILLKVKDSQTPTPSSTFFQAELWIKELTSVYDSRARERLRQIEEQKALALQLQNQRLQEREHSVHDSVELHLRVPLEKEIPVTVVQETQKKGHKLTDSEDEFPEITEEMEKEIKNVFRNGNQDEVLSEAFRLTITRKDIQTLNHLNWLNDEIINFYMNMLMERSKEKGLPSVHAFNTFFFTKLKTAGYQAVKRWTKKVDVFSVDILLVPIHLGVHWCLAVVDFRKKNITYYDSMGGINNEACRILLQYLKQESIDKKRKEFDTNGWQLFSKKSQEIPQQMNGSDCGMFACKYADCITKDRPINFTQQHMPYFRKRMVWEILHRKLL
- GrB activity (cleavage of Ac-IEPD-pNA, absorbance at 405 nm) and western blot after co-incubation with Mock-transfected or SENP1-overexpressing HEK lysate: SENP1 activates SUMO-GrB
